Data: publication PMC2710508

Tests used:
[1] = target: F-actin from chicken pectoral skeletal muscle (chicken) (UniProt P68139); assay: differential scanning calorimetry; tropomyosin 15 µM and TnT 70–170 18 µM with phalloidin (36 µM) stabilized F-actin (24 µM), 100 mM NaCl, 10 mM Hepes pH 7.0, 2 mM MgCl2, 1 mM DTT; three heating scans at 1°C/min; peak of unfolding/dissociation of actin-bound tropomyosin
[2] = target: F-actin from chicken pectoral skeletal muscle (chicken) (UniProt P68139); assay: co-sedimentation; tropomyosin 0.1–10 µM with 0.12–12 µM troponin T 70–170 (1.2× molar excess) and 5 µM F-actin, 20°C, 250 mM NaCl, 10 mM TrisHCl pH 7.5, 2 mM MgCl2, 0.5 mM DTT; pellets and supernatants by SDS-PAGE and densitometry; apparent constant (Kapp) and Hill coefficient from a fit to the Hill equation
F-actin = F-actin (UniProt P68133); assay: given as Ka; settings: cited from earlier work

Substance | DSC TM of dissociation from F-actin (TM3) [1] | DSC ΔΔH (with minus without F-actin) [1] | Ka [2] | association constant (Ka) (F-actin)
P5→P3 tropomyosin (residues 165–188 of P5 replace residues 88–111 of P3) (from UniProt P04692 1-284) (natural protein) | 37.6 °C | 37.6 kcal/mol | 1.33e+06 M⁻¹ | 
tropomyosin (from UniProt P09493) |  |  |  | 400 µM
